Patent US11447754B2, “In vitro methods of chemical conversion using non-stereospecific glutathione lyases” (WISCONSIN ALUMNI RESEARCH FOUNDATION, priority 2017, dated 2022)

B1: NaGSTNu: Nu-class glutathione S-transferase from Novosphingobium aromaticivorans DSM 12444 (Saro_2595), SEQ ID NO:18; non-stereospecific glutathione lyase (protein)
chain: MSSEYVPPKVWKWDKANGGAFASVNRPVAGPTSERELPVGKHPFQVYSLGTPNGQKATIMLEELLQLGFSEAEYDAWLIKIFEGDQFTSGFVDINPNSKIPAMVDRSGPEPFRVFESGAILMHLAEKFGVFLPTSGPARAECLSWLFWQVGSAPFIGGGFGHFYNYAPIKIEYAIDRYAMETKRLFDVANRRLAESRYLAGDEYTIADLATYTWFGNIYRGEAYGEAATFLSMHEYEHVGRWVGEIDARPGVLRGRLVNSSKGLAERHDASDFDALPPESLQAIVKGF
modifications: Novosphingobium aromaticivorans
notes: non-stereospecific glutathione lyase
B2: BaeA: heterodimeric β-aryl etherase of Saro_2872 (SEQ ID NO:40) and Saro_2873 (SEQ ID NO:42) from Novosphingobium aromaticivorans (protein)
chain 1: MSALLYHGEPNGASLTVLAALAETGLDIECRRIDLLAGERHSLPGIVDPVALDLSIEGEGPVLVIDGEAMTESVFLAQYLDEAAGGVGLQPTDAYARWEMMMWCRQITERLSPAAALLGNLATSQSAIAAIPAEDFAILAARIVSDDLRERWQALNDDAVNAAQVADSETKVAAAVDRCEKQLGDGREWLMGTFSIADLVTYSWLAGMEPLRPAAFADAPLVKAWLARTAARPCVQAALARATISEPLRAWAPGPEINRWG
chain 2: MDEVSLYHWEPNANSGKPMLALMEKGVPFSSHYIDMLQFDQHKPEYLAINPQGTIPAMTHNGQVLTESTAIMEYVNDRFDGPDLMPADAQDRWRVRWWMKFMDQWLGPSFSMIGWSVFVGPMVRQRDPAELAAAIDRIPLPERRTAWRKAINGDFSESEMAESRRRVGLGIAKLEEELGKRPYVGSNQYSLADINIFNSTYSLPISQPDLAGKDRTPNIMRWLKRVYTREAVKKTWAMGKTDLAHRYGLIMAEIEG
modifications: Novosphingobium aromaticivorans
B3: SYK6GSTNu: Nu-class GST from Sphingobium sp. SYK-6 encoded by SLG_04120, SEQ ID NO:22 (protein)
chain: MADSDPSMNQPTGYVPPKVWTWDKENGGQFSNINAPTAGARQDVTLPVGEHPIQLYSLGTPNGQKVTIMLEELLAAGFDAEYDAWLIKIYTGEQFGSDFVAINPNSKIPAMMDHGLDPPLRLFESGSMLVYLAEKFGAFLPTEIRKRTETFNWLMWQMGSAPFVGGGFGHFYAYAPFKIEYAIDRYAMETKRQLDVLDKNLADREFMIGDEITIADFAIFPWYGSIMRGGYNAQEFLSTHEYRNVDRWVTQLSERTGVKRGLLVNSAGRPGGGIAERHSAADLDASIKAAEQEAAKTEA
modifications: Sphingobium sp. SYK-6

Tests used:
Type in all cases: biochemical
[1] = Kinetics analysis of GS-HPV cleavage (conversion into HPV), β(R)-stereoisomer
Procedure: (§1) Kinetics analysis of GS-HPV cleavage. The Reaction Buffer (RB) consisted of 25 mM Tris-HCl (pH 8.5) and 25 mM NaCl. The β(R)- and β(S)-stereoisomers of GS-HPV were separately generated by incubating racemic MPHPV (0.46 mM) in RB with 5 mM reduced glutathione (GSH) and either 38 μg/mL LigF1 or 36 μg/mL LigE, respectively, for several h. This sample, containing a single GS-HPV stereoisomer, guaiacol, and the unreacted MPHPV stereoisomer, was diluted with RB to achieve the desired concentration of GS-HPV for the time course reaction (0.005, 0.011, 0.022, 0.096, or 0.193 mM). An additional 5 mM GSH (dissolved in RB) was added prior to initiation of each time course. […] Assays were performed at 25° C., and at specified time points, 300 μL of the reaction was removed and combined with 100 μL 1 M HCl (Acros Organics; Geel, Belgium) to stop the reaction before HPLC analysis to quantify HPV formed.
(§2) HPLC analysis. After extracellular aromatics were identified using LC-MS, routine analysis and quantification of aromatics were performed using an Ultra AQ C18 5 μm column (Restek, Bellefonte, Pa.) attached to a System Gold HPLC (Beckman Coulter, Brea, Calif.) with running buffers and chromatography conditions described in FIG. 14. […]

[2] = Kinetics analysis of GS-HPV cleavage (conversion into HPV), β(S)-stereoisomer
Procedure: as §1, §2

[3] = Assays to determine activities and stereospecificities of Saro_2872 and Saro_2873
Procedure: Cell-free protein synthesis. Cell-free protein synthesis was run essentially as previously described (Makino et al. 2014). The Saro_2872 polypeptide contained a His6-tag and a Tev protease recognition site on its N-terminus that were not removed. The Saro_2873 polypeptide was synthesized in its native form. Synthesized polypeptides were not purified from the synthesis reaction mixture; assays for enzymatic activity were performed by adding aliquots directly from the synthesis reaction. Concentrations of the Saro_2872 and Saro_2873 polypeptides in the reaction mixtures were approximated using the intensities of the bands in an SDS-PAGE gel.
0.1 mM racemic (β(S) and β(R)) MPHPV was combined with 5.8 mM glutathione (GSH) in reaction buffer (RB; 25 mM Tris-HCl (pH 8.0) and 25 mM NaCl). […] These 212 μL reactions were incubated at 30° C. for several hours, then analyzed via HPLC.
HPLC analysis. Analysis and quantification of aromatic compounds were performed using an Ultra AQ C18 5 μm column (Restek) attached to a System Gold HPLC (Beckman Coulter) with running buffers and methods described in Example 1. The eluent was analyzed for light absorbance between 191 and 600 nm, and absorbances at 280 nm were used for quantification of aromatic metabolites by comparing peak areas to those of standards.

Molecule	KM with β(R)-GS-HPV, fold higher than with β(S)-GS-HPV [1]	kcat/KM with the β(S)-isomer, fold higher than with the β(R)-isomer [2]	conversion of racemic MPHPV into GS-HPV and guaiacol ([3]; both polypeptides combined, ~24 nM each, 30° C.)	reaction with β(S)-MPHPV ([3]; recombinantly generated Saro_2872-Saro_2873 complex)
B1	~5 fold	~4 fold		
B2			half of the MPHPV was converted	did not react
B3		~10 fold		
